Assays:
[1] = target: T1, gp41 helicase;gp61 primase (Escherichia phage T4 (T4 …, UniProt P04530;P04520 1-475;1-342, |)); assay: cryo-EM; ATPgS; WT primosome pose 1; ssDNA seen, no RNA primer density; Cryo-EM with ATPgS (stated for gp41 and WT primosome); assembly buffer and temperature not in the material; cryo-EM proteins purified in HEPES pH 7.8 buffers; conditions: protein: recombinant;recombinant; tags: none (intein tag self-cleaved);none (intein tag self-cleaved); chain copies: 6;1; 70-nt DNA (strand 1) annealed to 5-nt RNA (strand 2) at internal TCGGC; single-stranded DNA on both sides
T1 sequence 1: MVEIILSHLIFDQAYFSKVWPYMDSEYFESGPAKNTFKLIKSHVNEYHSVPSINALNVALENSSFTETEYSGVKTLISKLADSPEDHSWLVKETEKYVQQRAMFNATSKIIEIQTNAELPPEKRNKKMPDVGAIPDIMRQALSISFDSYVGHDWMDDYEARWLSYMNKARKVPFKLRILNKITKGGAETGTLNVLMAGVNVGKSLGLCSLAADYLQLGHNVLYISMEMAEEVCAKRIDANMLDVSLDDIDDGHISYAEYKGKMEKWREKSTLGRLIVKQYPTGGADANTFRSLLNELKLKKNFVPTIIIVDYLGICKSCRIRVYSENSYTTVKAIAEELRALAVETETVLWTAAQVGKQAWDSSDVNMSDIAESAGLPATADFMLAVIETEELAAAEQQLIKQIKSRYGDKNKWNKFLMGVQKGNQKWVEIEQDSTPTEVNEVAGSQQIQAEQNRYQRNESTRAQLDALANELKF
T1 sequence 2: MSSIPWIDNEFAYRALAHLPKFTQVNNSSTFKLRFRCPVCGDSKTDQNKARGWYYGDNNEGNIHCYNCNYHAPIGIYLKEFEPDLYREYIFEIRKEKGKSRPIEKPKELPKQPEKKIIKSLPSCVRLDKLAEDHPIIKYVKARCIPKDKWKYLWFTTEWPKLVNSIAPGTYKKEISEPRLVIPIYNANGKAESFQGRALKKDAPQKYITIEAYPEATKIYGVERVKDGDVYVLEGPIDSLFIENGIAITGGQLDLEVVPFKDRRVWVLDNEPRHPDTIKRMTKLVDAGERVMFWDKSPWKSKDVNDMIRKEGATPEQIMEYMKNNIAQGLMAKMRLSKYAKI

[2] = target: T2, gp41(E227Q) helicase;gp61 primase (Escherichia phage T4 (T4 …, UniProt P04530;P04520 1-475;1-342, E227Q|)); assay: cryo-EM; mutant primosome, post primer synthesis; composite map, RNA/DNA hybrid seen; Cryo-EM with ATPgS (stated for gp41 and WT primosome); assembly buffer and temperature not in the material; cryo-EM proteins purified in HEPES pH 7.8 buffers; conditions: protein: recombinant;recombinant; tags: none (intein tag self-cleaved);none (intein tag self-cleaved); chain copies: 6;1; 70-nt DNA (strand 1) annealed to 5-nt RNA (strand 2) at internal TCGGC; single-stranded DNA on both sides
T2 sequence 1: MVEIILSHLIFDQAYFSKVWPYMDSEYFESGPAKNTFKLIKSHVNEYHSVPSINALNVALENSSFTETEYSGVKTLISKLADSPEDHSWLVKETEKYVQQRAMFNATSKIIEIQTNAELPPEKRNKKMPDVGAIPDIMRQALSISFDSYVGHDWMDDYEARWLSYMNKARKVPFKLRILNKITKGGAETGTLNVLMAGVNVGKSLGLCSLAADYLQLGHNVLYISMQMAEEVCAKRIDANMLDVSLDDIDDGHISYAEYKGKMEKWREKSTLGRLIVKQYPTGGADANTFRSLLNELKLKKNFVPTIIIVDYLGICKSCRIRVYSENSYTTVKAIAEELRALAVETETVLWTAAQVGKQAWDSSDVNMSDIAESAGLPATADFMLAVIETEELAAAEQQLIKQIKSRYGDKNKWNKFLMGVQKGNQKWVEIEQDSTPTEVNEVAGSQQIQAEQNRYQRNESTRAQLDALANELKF
T2 sequence 2: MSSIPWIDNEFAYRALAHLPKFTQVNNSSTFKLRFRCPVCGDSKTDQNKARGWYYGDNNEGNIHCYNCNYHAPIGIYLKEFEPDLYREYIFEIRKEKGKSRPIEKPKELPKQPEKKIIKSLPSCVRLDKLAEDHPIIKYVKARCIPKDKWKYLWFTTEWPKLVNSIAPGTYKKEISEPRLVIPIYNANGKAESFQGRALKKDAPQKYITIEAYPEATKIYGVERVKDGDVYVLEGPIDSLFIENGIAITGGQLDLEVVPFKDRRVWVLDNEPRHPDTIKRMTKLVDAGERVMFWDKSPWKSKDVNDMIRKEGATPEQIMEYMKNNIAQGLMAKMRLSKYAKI

gp41 helicase = target: T3, gp41 helicase (Escherichia phage T4 (T4 bacteriophage), UniProt P04530 1-475); assay: cryo-EM; ATPgS; open spiral, 10 nt ssDNA held; RNA primer not resolved; Cryo-EM with ATPgS (stated for gp41 and WT primosome); assembly buffer and temperature not in the material; cryo-EM proteins purified in HEPES pH 7.8 buffers; conditions: protein: recombinant; tags: none (intein tag self-cleaved); chain copies: 6; 70-nt DNA (strand 1) annealed to 5-nt RNA (strand 2) at internal TCGGC; single-stranded DNA on both sides
T3 sequence: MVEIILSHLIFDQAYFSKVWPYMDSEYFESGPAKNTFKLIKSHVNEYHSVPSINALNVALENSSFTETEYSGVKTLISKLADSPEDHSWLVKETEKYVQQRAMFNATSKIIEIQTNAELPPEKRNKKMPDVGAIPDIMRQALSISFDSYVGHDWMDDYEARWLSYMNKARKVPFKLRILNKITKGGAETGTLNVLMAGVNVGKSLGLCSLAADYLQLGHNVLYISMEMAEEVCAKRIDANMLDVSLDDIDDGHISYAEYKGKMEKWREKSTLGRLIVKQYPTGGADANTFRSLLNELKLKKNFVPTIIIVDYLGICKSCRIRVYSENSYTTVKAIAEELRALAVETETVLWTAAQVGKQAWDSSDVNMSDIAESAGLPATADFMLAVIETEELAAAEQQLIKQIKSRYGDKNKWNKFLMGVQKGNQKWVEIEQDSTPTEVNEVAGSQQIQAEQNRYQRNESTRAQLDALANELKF

[3] = target: the molecule itself; assay: cryo-EM structure; step 1: 6 uM gp41 helicase with 5 mM ATPγS, no DNA; 20 mM HEPES pH 7.8, 100 mM NaCl, 10 mM MgCl2, 2 mM DTT; 30 min at room temperature
[4] = target: the molecule itself; assay: cryo-EM structure; primosome assembled from gp41 E227Q helicase, WT gp61 primase and the ssDNA/RNA primer substrate; helicase and primase regions refined separately

B1: ssDNA template/pentaribonucleotide primer (DNA:RNA)
DNA: GAATGAGGAGTAGTAGTGAATGTAGTGAGGTAATATCGGCTGGTCTGGTCTGTGCCAAGTTGCTGCAAAA
?: GCCGA
modifications: RNA primer 5'-triphosphate
What does the source list for B1?
binding result [1]: binds; binding result [2]: binds; binding result (gp41 helicase): binds

B2: T4 bacteriophage gp41 helicase (enzyme, UniProt P04530 1-475, looked up)
chain: MVEIILSHLIFDQAYFSKVWPYMDSEYFESGPAKNTFKLIKSHVNEYHSVPSINALNVALENSSFTETEYSGVKTLISKLADSPEDHSWLVKETEKYVQQRAMFNATSKIIEIQTNAELPPEKRNKKMPDVGAIPDIMRQALSISFDSYVGHDWMDDYEARWLSYMNKARKVPFKLRILNKITKGGAETGTLNVLMAGVNVGKSLGLCSLAADYLQLGHNVLYISMEMAEEVCAKRIDANMLDVSLDDIDDGHISYAEYKGKMEKWREKSTLGRLIVKQYPTGGADANTFRSLLNELKLKKNFVPTIIIVDYLGICKSCRIRVYSENSYTTVKAIAEELRALAVETETVLWTAAQVGKQAWDSSDVNMSDIAESAGLPATADFMLAVIETEELAAAEQQLIKQIKSRYGDKNKWNKFLMGVQKGNQKWVEIEQDSTPTEVNEVAGSQQIQAEQNRYQRNESTRAQLDALANELKF
notes: gp41 helicase of T4 bacteriophage, wild type; NTD (globular subdomain and helical hairpin), linking helix and RecA-like CTD; Hexamer assembled with ATPγS; also called WT gp41 helicase; T4 helicase
For B2, which “stoichiometry N” value [3] is on record?
Its value is 6 subunits.

B3: T4 bacteriophage gp41 helicase E227Q (enzyme, UniProt P04530 1-475, looked up)
chain: MVEIILSHLIFDQAYFSKVWPYMDSEYFESGPAKNTFKLIKSHVNEYHSVPSINALNVALENSSFTETEYSGVKTLISKLADSPEDHSWLVKETEKYVQQRAMFNATSKIIEIQTNAELPPEKRNKKMPDVGAIPDIMRQALSISFDSYVGHDWMDDYEARWLSYMNKARKVPFKLRILNKITKGGAETGTLNVLMAGVNVGKSLGLCSLAADYLQLGHNVLYISMQMAEEVCAKRIDANMLDVSLDDIDDGHISYAEYKGKMEKWREKSTLGRLIVKQYPTGGADANTFRSLLNELKLKKNFVPTIIIVDYLGICKSCRIRVYSENSYTTVKAIAEELRALAVETETVLWTAAQVGKQAWDSSDVNMSDIAESAGLPATADFMLAVIETEELAAAEQQLIKQIKSRYGDKNKWNKFLMGVQKGNQKWVEIEQDSTPTEVNEVAGSQQIQAEQNRYQRNESTRAQLDALANELKF
notes: gp41 helicase of T4 bacteriophage with E227Q in the walker-B motif (no ATP hydrolysis); PDB 8DTP is the wild-type parent; also called gp41(E227Q)
Does B3 bind [4]?
Result: binds
